Assay results published in the supplement of paper PMC7877785.
± gives the uncertainty stated by the source.

Test: self-splicing fitness, log relative to wild type (ln ratio); higher = more splicing; Tetrahymena group I intron in knt gene, E. coli kanamycin selection, DiMSum; sequences stand for … in CUCUCU…GGAGGGAAAAGUUAUCAGGCAUGCACCUGGUAGCUAGUCUUUAAACCAAUAGAUUGCAUCGGUUUAAAAGGCAAGACCGUCAAAUUGCGGGAAAGGGGUCAACAGCCGUUCAGUACCAAGUCUCAGGGGAAACUUUGAGAUGGCCUUGCAAAGGGUAUGGUAAUAAGCUGACGGACAUGGUCCUAACCACGCAGCCAAGUCCUAAGUCAACAGAUCUUCUGUUGAUAUGGAUGCAGUUCACAGACUAAAUGUCGGUCGGGGAAGAUGUAUUCUUCUCAUAAGAUAUAGUCGGACCUCUCCUUAAUGGGAGCUAGCGGAUGAAGUGAUGCAACACUGGAGCCGCUGGGAACUAAUUUGUAUGCGAAAGUAUAUUGAUUAGUUUUGGAGUACUCGUGGUCG
Summary of the method: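 Fitness was computed with DiMSum as the error-weighted combination of replicate fold changes, kanamycin versus none, each normalised to wild type. The library randomised all eight intron nucleotides of the P1ex region, with the intron placed in the knt kanamycin-resistance gene on pET-22b(+) in E. coli BL21(DE3). Six replicate transformations were grown overnight at 37°C or 30°C on LB agar with or without 25 μg/mL kanamycin, plus 100 μg/mL carbenicillin, 50 μM IPTG and 0.2% rhamnose. Pooled colonies were amplicon-sequenced on an Illumina HiSeq 2500.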

| Sequence | self-splicing fitness (ln) (30 °C) | self-splicing fitness (ln) (37 °C) |
| --- | --- | --- |
| GGCGAGCAAUAUUACGUGGC | -3.3 ± 0.25 | -1.73 ± 0.25 |
| AAUUAGCAAUAUUACGUAAG | -1.82 ± 0.12 | -0.936 ± 0.13 |
| UCCCAGCAAUAUUACGUGGU | -1.53 ± 0.069 | -0.339 ± 0.071 |
| AACCAGCAAUAUUACGAAUC | -1.65 ± 0.094 | -0.882 ± 0.1 |
| AUUGAGCAAUAUUACGGGGA | -2.32 ± 0.24 | -2.49 ± 0.28 |
| AUUUAGCAAUAUUACGUUAG | -3.03 ± 0.47 | -2.61 ± 0.25 |
| GGCCAGCAAUAUUACGAAUU | -3.05 ± 0.19 | -1.03 ± 0.11 |
| UUUUAGCAAUAUUACGGCAG | -0.809 ± 0.11 | -0.727 ± 0.15 |
| AAAAAGCAAUAUUACGGAUA | -2.25 ± 0.11 | -1.14 ± 0.097 |
| CGUUAGCAAUAUUACGCAUC |  | -2.72 ± 0.41 |
| ACUUAGCAAUAUUACGUAGG | -1.25 ± 0.079 | -1.12 ± 0.11 |
| UGUGAGCAAUAUUACGUUUG | -2.21 ± 0.14 | -2.76 ± 0.26 |
| CGACAGCAAUAUUACGCCAC |  | 0.365 ± 0.49 |
| CCCAAGCAAUAUUACGAGGC | -4.03 ± 0.15 | -3.25 ± 0.18 |
| ACUUAGCAAUAUUACGAGAA | -2.06 ± 0.29 | -2.07 ± 0.23 |
| UGGCAGCAAUAUUACGUAUC | -3.85 ± 0.31 | -1.82 ± 0.25 |
| CGGCAGCAAUAUUACGAACU | -1.15 ± 0.44 | -0.121 ± 0.34 |
| UGAAAGCAAUAUUACGGAGC | -3.81 ± 0.37 | -2.81 ± 0.26 |
| GUCCAGCAAUAUUACGCCAG | -3.38 ± 0.23 | -1.15 ± 0.2 |
| GAAGAGCAAUAUUACGAUAG | -3.04 ± 0.24 | -2.14 ± 0.29 |
| GUAGAGCAAUAUUACGACUU | -0.172 ± 0.081 | 0.104 ± 0.1 |
| CAUCAGCAAUAUUACGCUUU | -2.23 ± 0.097 | -1.34 ± 0.1 |
| AUAUAGCAAUAUUACGCGCG | -0.915 ± 0.12 | -0.503 ± 0.15 |
| GUCAAGCAAUAUUACGUUAA | -2.02 ± 0.12 | -1.74 ± 0.1 |
| ACGCAGCAAUAUUACGGAGA | -2.66 ± 0.3 | -2.41 ± 0.2 |
| CAUCAGCAAUAUUACGCCGG | -0.415 ± 0.086 | -0.327 ± 0.11 |

| Sequence | self-splicing fitness (ln) (30 °C) | self-splicing fitness (ln) (37 °C) |
| --- | --- | --- |
| CUGCAGCAAUAUUACGCGAG | -3.67 ± 0.17 | -1.98 ± 0.15 |
| AGGCAGCAAUAUUACGAUUC | -1.71 ± 0.13 | -0.305 ± 0.16 |
| GGCGAGCAAUAUUACGAAUU | -1.66 ± 0.14 | -0.459 ± 0.17 |
| ACCCAGCAAUAUUACGAAAG | -2.85 ± 0.13 | -1.47 ± 0.17 |
| GUAAAGCAAUAUUACGUUGA | -1.97 ± 0.071 | -0.945 ± 0.098 |
| AAUGAGCAAUAUUACGUUGA | -3.71 ± 0.24 | -2.25 ± 0.17 |
| UUAAAGCAAUAUUACGCGAU | -3.01 ± 0.24 | -0.953 ± 0.17 |
| UGUCAGCAAUAUUACGUCCG | -0.177 ± 0.17 | 0.083 ± 0.2 |
| AUGAAGCAAUAUUACGACUG | -0.375 ± 0.097 | -0.617 ± 0.11 |
| GGAAAGCAAUAUUACGGGUG | -1.91 ± 0.14 | -1.78 ± 0.15 |
| ACUAAGCAAUAUUACGCGGA | -1.96 ± 0.094 | -0.956 ± 0.083 |
| AACCAGCAAUAUUACGAUGG | -2.91 ± 0.11 | -2.76 ± 0.14 |
| GAGCAGCAAUAUUACGGAAC | -3.14 ± 0.23 | -2.13 ± 0.16 |
| AACGAGCAAUAUUACGGACC | -2.49 ± 0.15 | -1.55 ± 0.22 |
| GACGAGCAAUAUUACGGUCU | -2.33 ± 0.15 | -2.8 ± 0.27 |
| GUUGAGCAAUAUUACGUUCU | -1.82 ± 0.14 | -1.2 ± 0.13 |
| GUUUAGCAAUAUUACGUUCG | -1.61 ± 0.13 | -0.589 ± 0.14 |
| UAUAAGCAAUAUUACGUCCA | -1.23 ± 0.12 | 0.113 ± 0.18 |
| GGAGAGCAAUAUUACGGAUC | -1.91 ± 0.12 | -0.404 ± 0.14 |
| UAGUAGCAAUAUUACGGGCA | -1.17 ± 0.16 | -0.536 ± 0.15 |
| UCGCAGCAAUAUUACGCUUC | -1.8 ± 0.34 | -1.68 ± 0.44 |
| GUGAAGCAAUAUUACGUAUG | -2.38 ± 0.085 | -1.29 ± 0.088 |
| UGGAAGCAAUAUUACGUAAG | -1.07 ± 0.12 | -0.81 ± 0.13 |
| UGAUAGCAAUAUUACGACAA |  | -2.07 ± 0.35 |
| AUUCAGCAAUAUUACGACGU | -0.0483 ± 0.06 | 0.146 ± 0.068 |
| UGAUAGCAAUAUUACGUAAA | -3.07 ± 0.16 | -1.64 ± 0.14 |

| Sequence | self-splicing fitness (ln) (30 °C) | self-splicing fitness (ln) (37 °C) |
| --- | --- | --- |
| CAAAAGCAAUAUUACGAUUG | -2.75 ± 0.087 | -1.82 ± 0.1 |
| CGCGAGCAAUAUUACGGCCA |  | -1.68 ± 0.39 |
| GAACAGCAAUAUUACGGAUU | -1.29 ± 0.076 | -0.167 ± 0.093 |
| GACGAGCAAUAUUACGGUGU | -4.63 ± 0.45 | -2.64 ± 0.22 |
| GUGUAGCAAUAUUACGCGUA | -1.82 ± 0.26 | -0.729 ± 0.17 |
| UAGCAGCAAUAUUACGAUCU | -1.92 ± 0.081 | -1.08 ± 0.077 |
| ACUUAGCAAUAUUACGGUAU | -3.18 ± 0.12 | -2.5 ± 0.13 |
| GGCCAGCAAUAUUACGCAAA | -3.09 ± 0.24 | -1.02 ± 0.12 |
| AUGAAGCAAUAUUACGGUGA | -0.607 ± 0.069 | 0.195 ± 0.096 |
| CUUGAGCAAUAUUACGGAUU | -4.83 ± 0.45 | -3.23 ± 0.29 |
| GUGAAGCAAUAUUACGAUAA | -0.524 ± 0.15 | 0.6 ± 0.15 |
| CUUCAGCAAUAUUACGCUAG | -3.22 ± 0.26 | -1.34 ± 0.19 |
| ACGCAGCAAUAUUACGUCCU | -0.15 ± 0.058 | 0.354 ± 0.07 |
| AAGUAGCAAUAUUACGAUCC | -0.772 ± 0.19 | -0.304 ± 0.29 |
| AGGGAGCAAUAUUACGAUUU | -2.26 ± 0.18 | -1.92 ± 0.29 |
| CUGAAGCAAUAUUACGCAGU | -3.09 ± 0.19 | -3.23 ± 0.43 |
| UACGAGCAAUAUUACGUUAC | -2.96 ± 0.42 |  |
| CGGAAGCAAUAUUACGUGGG | -3.23 ± 0.13 | -2.85 ± 0.18 |
| UCCUAGCAAUAUUACGUUCU | -3.14 ± 0.14 | -2.51 ± 0.13 |
| CGUAAGCAAUAUUACGAGCC |  | -1.87 ± 0.22 |
| AUAGAGCAAUAUUACGUUUU | -1.43 ± 0.084 | -1.3 ± 0.14 |
| GCAAAGCAAUAUUACGUGCC | -4.02 ± 0.25 | -1.63 ± 0.2 |
| UAACAGCAAUAUUACGUGAU | -2.4 ± 0.12 | -1.7 ± 0.17 |
| CGGCAGCAAUAUUACGUAAA | -2.71 ± 0.12 | -1.84 ± 0.12 |
| AGGCAGCAAUAUUACGGUAU | -1.79 ± 0.093 | -0.467 ± 0.1 |
